The supplement of paper PMC10567573

B1: TRIM55 (parent)
chain: FQMEKIEHGYENMNHFTVNLNREE

Variants of: B1
Experiment: protein stability index of a GFP-peptide fusion (GPS, HEK-293T) (PSI 1-6); higher = more stable
Settings: c terminus: a fixed tail appended
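Note: lentivirally expressed fusions sorted by FACS into six bins by GFP to DsRed ratio, PSI derived from sequencing read proportions per bin multiplied by bin number.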

Variant	protein stability index
FQMEKIEHGYENMQHFTVNLNREE	3.11
FQMEKIEHGYENMPHFTVNLNREE	2.79
FQMEKIEHGYENMGHFTVNLNREE	3.21
FQMEKIEHGYENMYHFTVNLNREE	3.78
FQMEKIEHGYENMDHFTVNLNREE	3.45
FQMEKIEHGYENMFHFTVNLNREE	2.53
FQMEKIEHGYENMSHFTVNLNREE	2.68
FQMEKIPHGYENMNHFTVNLNREE	2.6
FQMEKICHGYENMNHFTVNLNREE	2.42
FQMEKIGHGYENMNHFTVNLNREE	2.1
FQMEKIQHGYENMNHFTVNLNREE	2.73
FQMEKIHHGYENMNHFTVNLNREE	2.66
FQMEKIVHGYENMNHFTVNLNREE	1.85
FQMEKIIHGYENMNHFTVNLNREE	2.42
FQMEKIEHGYENMNHFTVNLQREE	3.07
FQMEKIEHGYENMNHFTVNLRREE	2.51
FQMEKIEHGYENMNHFTVNLVREE	2.4
FQMEKIEHGYENMNHFTVNLPREE	2.94
FQMEKIEHGYENMNHFTVNLGREE	2.86
FQMEKIEHGYENMNHFTVNLLREE	2.2
FQMEKIEHGYENMNHFTVNLAREE	2.89
FQMEKIEHGYENMNHFTVNLDREE	3.65
FQMEKIEHGYENMNPFTVNLNREE	1.5
FQMEKIEHGYENMNLFTVNLNREE	1.8

Variant	protein stability index
FQMEKIEHGYENMNQFTVNLNREE	3.57
FQMEKIEHGYENMNEFTVNLNREE	3.62
FQMEKIEHGYENMNMFTVNLNREE	1.95
FQMLKIEHGYENMNHFTVNLNREE	2.43
FQMTKIEHGYENMNHFTVNLNREE	2.13
FQMNKIEHGYENMNHFTVNLNREE	2.64
FQMIKIEHGYENMNHFTVNLNREE	2.24
FQMGKIEHGYENMNHFTVNLNREE	2.45
FQMYKIEHGYENMNHFTVNLNREE	2.1
FQMFKIEHGYENMNHFTVNLNREE	1.58
FQMHKIEHGYENMNHFTVNLNREE	2.66
FQMMKIEHGYENMNHFTVNLNREE	1.73
FQMVKIEHGYENMNHFTVNLNREE	1.8
FQMDKIEHGYENMNHFTVNLNREE	2.76
FQMEKIEHGYENMNHFTVNGNREE	3.43
FQMEKIEHGYENMNHFTVNWNREE	2.35
FQMEKIEHGYENMNHFTVNRNREE	3.01
FQMEKIEHGYENMNHFTVNSNREE	3.2
FQMEKIEHGYENMNHFTVNPNREE	2.88
FQMEKIEHGYENMNHPTVNLNREE	4.4
FQMEKIEHGYENMNHLTVNLNREE	4.21
FQMEKIEHGYENMNHWTVNLNREE	1.96
FQMEKIEHGYENMNHGTVNLNREE	4.23
FQMEKIEHGYENMNHMTVNLNREE	3.87

Variant	protein stability index
FQMEKIEHGYENMNHITVNLNREE	3.65
FQMEKIEHGYENMNHQTVNLNREE	4.23
FQMEKIEHGYENMNHETVNLNREE	4.5
FQMEKIEHGYENLNHFTVNLNREE	2.61
FQMEKIEHGYENGNHFTVNLNREE	3.75
FQMEKIEHGYENTNHFTVNLNREE	3.36
FQMEKIEHGYENSNHFTVNLNREE	3.04
FQMEKIEHGYENINHFTVNLNREE	2.52
FQMEKIEHGYENENHFTVNLNREE	3.67
FQMEKIEHGYENDNHFTVNLNREE	3.79
FQMEKIEHGYENNNHFTVNLNREE	3.81
FQMEKIEHGYENRNHFTVNLNREE	2.68
FQMEKIEHGYENFNHFTVNLNREE	2.82
FQMEKIEHGYENQNHFTVNLNREE	3.33
FQMEKIEHFYENMNHFTVNLNREE	2.34
FQMEKIEHLYENMNHFTVNLNREE	2.94
FQMEKIEHWYENMNHFTVNLNREE	3.05
FQMEKIEHIYENMNHFTVNLNREE	2.4
FQMEKIEHQYENMNHFTVNLNREE	3.05
FQMEKIEHYYENMNHFTVNLNREE	2.11
FQMEKIEHRYENMNHFTVNLNREE	2.91
FQMEKIEHKYENMNHFTVNLNREE	2.81
FQMEKIEHGYEEMNHFTVNLNREE	3.57
FQMEKIEHGYETMNHFTVNLNREE	2.76

Variant	protein stability index
FQMEKIEHGYEVMNHFTVNLNREE	2.04
FQMEKIEHGYEAMNHFTVNLNREE	2.19
FQMEKIEHGYEFMNHFTVNLNREE	2.17
FQMEKIEHGYEPMNHFTVNLNREE	2.37
FQMEKIEHGYEHMNHFTVNLNREE	2.38
FQMEKIEHGYEQMNHFTVNLNREE	2.51
FQMEKIEHGYELMNHFTVNLNREE	2.14
FQMEKIEHGYESMNHFTVNLNREE	2.3
FQSEKIEHGYENMNHFTVNLNREE	2.88
FQYEKIEHGYENMNHFTVNLNREE	3.06
FQLEKIEHGYENMNHFTVNLNREE	2.82
FQGEKIEHGYENMNHFTVNLNREE	3.62
FQDEKIEHGYENMNHFTVNLNREE	4.53
FQMEKIEHGYENMNHFTWNLNREE	1.69
FQMEKIEHGYENMNHFTANLNREE	3.24
FQMEKIEHGYENMNHFTSNLNREE	3.77
FQMEKIEHGYENMNHFTTNLNREE	3.86
FQMEKIEHGYENMNHFTQNLNREE	4.15
FQMEKIEHGYENMNHFTPNLNREE	2.11
FQMEKIEHGYENMNHFTINLNREE	2.94
FQMEKIEHGYENMNHFTHNLNREE	3.66
FQMEKIEHGYENMNHFTMNLNREE	3.49
FQMEKYEHGYENMNHFTVNLNREE	2.97
FQMEKREHGYENMNHFTVNLNREE	2.6

Variant	protein stability index
FQMEKMEHGYENMNHFTVNLNREE	2.84
FQMEKDEHGYENMNHFTVNLNREE	3.25
FQMEKAEHGYENMNHFTVNLNREE	3.27
FQMEKIEHGYENMNHFTVNLNRED	2.77
FQMEKIEHGYENMNHFTVNLNREC	2.4
FQMEKIEHGYENMNHFTVNLNREG	1.97
FQMEKIEHGYENMNHFTVNLNRET	2.12
FQMEKIEHGYENMNHFTVNLNREV	2.49
FQMEKIEHGYENMNHFTVNLNREI	1.98
FQMEKIEHGYENMNHFTVNLNREN	2.33
FQMEKIEHGYENMNHFTVNLNREA	2.27
FQMEKIEHGYENMNHFTVNLNRER	3.3
FQMEKIEHGYENMNHFTVNLNRES	2.06
FQMEKIEHGYENMNHFTVNLNREK	2.57
FQMEKIEHGYENMNHFTVHLNREE	2.24
FQMEKIEHGYENMNHFTVALNREE	3.17
FQMEKIEHGYENMNHFTVMLNREE	2.27
FQMEKIEHGYENMNHFTVSLNREE	2.16
FQMEKIEHGYENMNHFTVELNREE	3.28
HQMEKIEHGYENMNHFTVNLNREE	4.58
KQMEKIEHGYENMNHFTVNLNREE	4.17
YQMEKIEHGYENMNHFTVNLNREE	3.3
LQMEKIEHGYENMNHFTVNLNREE	4.05
WQMEKIEHGYENMNHFTVNLNREE	3.78

Variant	protein stability index
RQMEKIEHGYENMNHFTVNLNREE	4.45
TQMEKIEHGYENMNHFTVNLNREE	4.67
PQMEKIEHGYENMNHFTVNLNREE	4.65
FQMEKIEHGYENMNHFTVNLNYEE	2.31
FQMEKIEHGYENMNHFTVNLNIEE	2.4
FQMEKIEHGYENMNHFTVNLNTEE	2.99
FQMEKIEHGYENMNHFTVNLNNEE	3.57
FQMEKIEHGYENMNHFTVNLNQEE	3.1
FQMEKIEHGYENMNHFTVNLNLEE	1.96
FQMEKIEHGYENMNHFTVNLNSEE	3
FQMEKIEHGEENMNHFTVNLNREE	3.74
FQMEKIEHGSENMNHFTVNLNREE	3.44
FQMEKIEHGFENMNHFTVNLNREE	3.02
FQMEKIEHGAENMNHFTVNLNREE	3.55
FQMEKIEHGGENMNHFTVNLNREE	3.31
FQMEKIEHGPENMNHFTVNLNREE	3.63
FQMEKIEHGMENMNHFTVNLNREE	3.31
FQMEKIEHGVENMNHFTVNLNREE	3.35
FQMEKIEHGYQNMNHFTVNLNREE	2.18
FQMEKIEHGYINMNHFTVNLNREE	2.31
FQMEKIEHGYSNMNHFTVNLNREE	2.59
FQMEKIEHGYKNMNHFTVNLNREE	2.42
FQMEKIEHGYYNMNHFTVNLNREE	2.08
FQMEKIEHGYMNMNHFTVNLNREE	1.98

Variant	protein stability index
FQMEKIEHGYHNMNHFTVNLNREE	1.95
FQMEKIEHGYFNMNHFTVNLNREE	2.04
FQMEKIEHGYENMNHFDVNLNREE	4.07
FQMEKIEHGYENMNHFEVNLNREE	4.27
FQMEKIEHGYENMNHFPVNLNREE	3.7
FQMEKIEHGYENMNHFYVNLNREE	1.92
FQMEKIEHGYENMNHFRVNLNREE	3.1
FQMEKIEHGYENMNHFFVNLNREE	1.74
FQMEKIEHGYENMNHFCVNLNREE	2.49
FQMEKIEHGYENMNHFWVNLNREE	1.93
FQMEPIEHGYENMNHFTVNLNREE	3.55
FQMEGIEHGYENMNHFTVNLNREE	2.93
FQMERIEHGYENMNHFTVNLNREE	2.68
FQMEEIEHGYENMNHFTVNLNREE	4.2
FQMELIEHGYENMNHFTVNLNREE	2.6
FQMEIIEHGYENMNHFTVNLNREE	2.24
FQMESIEHGYENMNHFTVNLNREE	3.43
FQMEFIEHGYENMNHFTVNLNREE	1.7
FQMEAIEHGYENMNHFTVNLNREE	2.9
FQMEVIEHGYENMNHFTVNLNREE	2.49
FHMEKIEHGYENMNHFTVNLNREE	2.28
FEMEKIEHGYENMNHFTVNLNREE	4.49
FWMEKIEHGYENMNHFTVNLNREE	2.62
FTMEKIEHGYENMNHFTVNLNREE	3.35

Variant	protein stability index
FMMEKIEHGYENMNHFTVNLNREE	3.42
FDMEKIEHGYENMNHFTVNLNREE	4.1
FAMEKIEHGYENMNHFTVNLNREE	3.14
FYMEKIEHGYENMNHFTVNLNREE	2.52
FQMEKIEGGYENMNHFTVNLNREE	2.37
FQMEKIEDGYENMNHFTVNLNREE	2.71
FQMEKIEEGYENMNHFTVNLNREE	3.51
FQMEKIEAGYENMNHFTVNLNREE	2.77
FQMEKIELGYENMNHFTVNLNREE	2.44
FQMEKIEVGYENMNHFTVNLNREE	3.03
FQMEKIETGYENMNHFTVNLNREE	2.73
FQMEKIEHGYENMNHFTVNLNRPE	2.29
FQMEKIEHGYENMNHFTVNLNRFE	1.88
FQMEKIEHGYENMNHFTVNLNRRE	1.88
FQMEKIEHGYENMNHFTVNLNRQE	2.39
FQMEKIEHGYENMNHFTVNLNRKE	2.26
FQMEKIEHGYENMNHFTVNLNRHE	1.77
FQMEKIEHGYENMNHFTVNLNRCE	1.67
FQMEKIEHGYENMNHFTVNLNRSE	2.67
FQMEKIEHGYENMNHFTVNLNRIE	1.64
